Test results as given in PMC9900621, “5-Formyltetrahydrofolate promotes conformational remodeling in a methylenetetrahydrofolate reductase active site and inhibits its activity” (The Journal of Biological Chemistry, 2022).
Residue numbers refer to the chain shown, from its start.

Legend:
[1] = target: T1, methylenetetrahydrofolate reductase (tMTHFR) (Thermus thermophilus, UniProt Q5SLG6, E18Q); test: crystal structure ([…] Å, pH […]); assay type: binding
T1 construct: gene TTHA0327; recombinant, uncleavable C-terminal hexa-Histidine tag
T1 sequence (Q5SLG6 1-296 E18Q): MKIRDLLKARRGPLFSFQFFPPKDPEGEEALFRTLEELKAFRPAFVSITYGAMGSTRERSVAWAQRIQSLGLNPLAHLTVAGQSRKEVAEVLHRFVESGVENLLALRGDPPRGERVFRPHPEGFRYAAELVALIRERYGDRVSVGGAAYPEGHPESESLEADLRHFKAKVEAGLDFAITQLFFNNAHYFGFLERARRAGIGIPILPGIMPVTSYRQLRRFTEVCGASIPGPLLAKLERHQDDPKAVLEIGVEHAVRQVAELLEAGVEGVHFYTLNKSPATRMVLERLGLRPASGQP

[2] = target: the molecule itself; test: crystal structure; tMTHFR cocrystallised with CHO-H4folate, FAD-replete; reservoir 0.1 M sodium acetate pH 4.5, 2.5 M NaCl, 0.2 M lithium sulfate, 1.2% myo-inositol, 4 °C; 1.45 Å
[3] = target: the molecule itself; test: crystal structure; folate-free tMTHFR Glu18Gln, as purified, with 0.6 mM CH3-H4folate; reservoir 0.1 M Hepes pH 7.8, 1 M LiCl, 20% PEG 6000, 20 °C, hanging drop; 1.90 Å

Cc1cc2nc3c(=O)[nH]c(=O)nc-3n(C[C@H](O)[C@H](O)[C@H](O)COP(=O)(O)OP(=O)(O)OC[C@H]3O[C@@H](n4cnc5c(N)ncnc54)[C@H](O)[C@@H]3O)c2cc1C [FAD]
crystal structure (1.90 Å, pH 7.8) [1]: presence of a small-molecule was found in the active site near FAD

B1: Thermus thermophilus HB8 methylenetetrahydrofolate reductase (tMTHFR), wild type (enzyme)
chain: T1 sequence (Q5SLG6 1-296 E18Q) with Q18E
notes: Uncleavable hexa-histidine tag on the C-terminus; Crystallised FAD-replete, with or without CHO-H4folate; also called tMTHFR^wt; MTHFR^wt; not shown: His6, C-terminal, kept
binding result [2]: binds

B2: Thermus thermophilus HB8 methylenetetrahydrofolate reductase Glu18Gln mutant (enzyme)
chain: T1 sequence (Q5SLG6 1-296 E18Q)
notes: methylenetetrahydrofolate reductase of Thermus thermophilus HB8 with Glu18Gln, expressed from pET(tMR^Glu18Gln-H); Uncleavable hexa-histidine tag on the C-terminus; Crystallised as purified, with 0.6 mM CH3-H4folate that could not be assigned in the density; also called tMTHFR^Glu18Gln; MTHFR^Glu18Gln; not shown: His6, C-terminal, kept
binding result [3]: binds
